Measured values from patent US20240287172A1 (SCIRHOM, published 2024).

Key:
hiR1-FL-WT-T7 = target: T1, hiR1-FL-WT-T7 (human, UniProt Q96CC6 1-855); assay: FACS on MEF-DKO cells
T1 construct: on MEF-DKO cells
T1 sequence: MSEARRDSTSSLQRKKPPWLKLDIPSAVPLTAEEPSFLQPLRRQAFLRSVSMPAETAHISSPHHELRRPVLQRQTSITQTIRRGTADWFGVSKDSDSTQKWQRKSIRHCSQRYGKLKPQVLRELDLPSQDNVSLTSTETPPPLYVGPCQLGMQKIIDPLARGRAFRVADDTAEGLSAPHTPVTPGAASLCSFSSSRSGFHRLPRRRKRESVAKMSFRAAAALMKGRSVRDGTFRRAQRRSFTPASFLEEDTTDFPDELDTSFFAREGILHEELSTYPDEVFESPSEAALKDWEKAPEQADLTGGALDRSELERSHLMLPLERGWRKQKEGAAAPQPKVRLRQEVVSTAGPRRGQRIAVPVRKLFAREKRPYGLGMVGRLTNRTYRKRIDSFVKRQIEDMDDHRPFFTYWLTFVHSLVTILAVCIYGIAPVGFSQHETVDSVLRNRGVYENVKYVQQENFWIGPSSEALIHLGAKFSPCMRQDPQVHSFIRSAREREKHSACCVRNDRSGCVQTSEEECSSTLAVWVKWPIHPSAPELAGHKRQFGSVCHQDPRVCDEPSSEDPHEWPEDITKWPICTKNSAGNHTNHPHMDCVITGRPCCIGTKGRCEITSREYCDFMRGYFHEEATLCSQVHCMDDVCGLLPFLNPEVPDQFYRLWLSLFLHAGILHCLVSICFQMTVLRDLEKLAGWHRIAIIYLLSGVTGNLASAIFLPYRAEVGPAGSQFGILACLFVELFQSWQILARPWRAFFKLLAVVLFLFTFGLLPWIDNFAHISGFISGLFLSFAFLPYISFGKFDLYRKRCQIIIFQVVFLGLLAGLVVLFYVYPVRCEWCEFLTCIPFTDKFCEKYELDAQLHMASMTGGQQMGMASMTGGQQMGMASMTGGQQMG

hiR2-FL-R543Q-T7 = target: T2, hiR2-FL-R543Q-T7 (human, UniProt Q6PJF5 1-856); assay: FACS, MEF-DKO cells, 3 µg/ml
T2 sequence: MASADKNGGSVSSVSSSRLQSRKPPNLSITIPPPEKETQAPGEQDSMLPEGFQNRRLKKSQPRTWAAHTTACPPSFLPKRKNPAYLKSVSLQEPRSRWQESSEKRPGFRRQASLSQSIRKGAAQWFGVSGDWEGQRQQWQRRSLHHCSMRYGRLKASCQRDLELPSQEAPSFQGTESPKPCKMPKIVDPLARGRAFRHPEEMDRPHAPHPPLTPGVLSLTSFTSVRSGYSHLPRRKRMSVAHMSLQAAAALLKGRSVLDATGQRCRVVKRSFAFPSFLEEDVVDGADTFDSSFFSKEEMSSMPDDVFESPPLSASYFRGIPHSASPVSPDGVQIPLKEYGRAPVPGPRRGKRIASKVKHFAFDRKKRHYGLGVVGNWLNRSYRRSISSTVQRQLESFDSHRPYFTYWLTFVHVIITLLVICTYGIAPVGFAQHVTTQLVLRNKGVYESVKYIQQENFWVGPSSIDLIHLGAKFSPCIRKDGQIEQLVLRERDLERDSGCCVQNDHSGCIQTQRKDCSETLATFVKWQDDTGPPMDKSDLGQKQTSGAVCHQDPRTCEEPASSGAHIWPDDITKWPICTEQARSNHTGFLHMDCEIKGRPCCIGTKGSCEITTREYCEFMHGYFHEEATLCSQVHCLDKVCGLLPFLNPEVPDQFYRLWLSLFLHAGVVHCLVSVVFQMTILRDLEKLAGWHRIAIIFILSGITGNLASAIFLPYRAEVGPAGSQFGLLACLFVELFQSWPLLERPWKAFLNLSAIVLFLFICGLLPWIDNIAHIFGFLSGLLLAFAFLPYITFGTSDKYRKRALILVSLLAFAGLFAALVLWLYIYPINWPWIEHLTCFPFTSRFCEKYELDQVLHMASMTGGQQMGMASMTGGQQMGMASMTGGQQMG
Text: In brief, immortalized MEF-DKO-hiR2-FL-WT-T7 cells, MEF-DKO-miR2-FL-WT-T7 cells and MEF-DKO-hiR2-FL-R441K-T7, MEF-DKO-hiR2-FL-K443R-T7, MEF-DKO-hiR2-FL-V459I-T7, MEF-DKO-hiR2-FL-G481Q-T7, MEF-DKO-hiR2-FL-L488R-T7, MEF-DKO-hiR2-FL-L493I-T7, MEF-DKO-hiR2-FL-D496T-T7, MEF-DKO-hiR2-FL-H505R-T7, MEF-DKO-hiR2-FL-Q512L-T7, MEF-DKO-hiR2-FL- R513K-T7, MEF-DKO-hiR2-FL-D528N-T7, MEF-DKO-hiR2-FL-P533-T7, MEF-DKO-hiR2-FL-M534S-T7, MEF-DKO-hiR2-FL-G540S-T7, MEF-DKO-hiR2-FL-R543Q-T7, MEF-DKO-hiR2-FL-T544P-T7, MEF-DKO-hiR2-FL-G546A-T7, MEF-DKO-hiR2-FL-A547V-T7, MEF-DKO-hiR2-FL-R582Q-T7, MEF-DKO-hiR2-FL-F588L-T7, MEF-DKO-hiR2-FL-M591I-T7, MEF-DKO-hiR2-FL-E594K-T7, MEF-DKO-hiR2-FL-E626D-T7, MEF-DKO-hiR2-FL-L657I-T7, and MEF-DKO-hiR2-FL-H835Y-T7 cells were harvested with 10 mM EDTA in PBS, washed and resuspended in FACS buffer (PBS, 3% FBS, 0.05% sodium azide), and seeded in Nunc U-bottom 96-well plates (Thermo Fisher Scientific, USA) at approximately 3×10⁵ cells per well.
To pellet cells and remove supernatants, the plates were centrifuged at 1,500 rpm and 4° C. for 3 minutes. For primary staining, cells were resuspended in 100 μl per well of either FACS buffer alone (controls) or the purified antibodies 3, 5, 16, 22, 34, 42, 43, 44, 48, and 50 of the invention at 3 μg/ml FACS buffer and incubated on ice for 1 hour. Afterwards, plates were centrifuged at 1,500 rpm and 4° C. for 3 minutes and washed twice with 200 μl per well of FACS buffer. For secondary staining, cells were spun down and resuspended in 100 μl per well of PE-conjugated goat anti-mouse IgG F(ab′)2 detection fragment (Dianova, Germany) diluted 1:100 in FACS buffer. Protected from light, the cell suspensions were incubated on ice for 1 hour. Plates were then centrifuged at 1,500 rpm and 4° C. for 3 minutes and washed three times with 200 μl per well of FACS buffer. Finally, cells were resuspended in 150 μl per well of FACS buffer and analyzed using a BD Accuri™ C6 Plus flow cytometer (Becton Dickinson, Germany).

Row | Binder | binding result (hiR1-FL-WT-T7) | loss of binding vs wild type (hiR2-FL-R543Q-T7) [%]
1 | antibody 16 (antibody, V domains shown, mouse IgG, kappa light chain; also called clone #16; purified antibody 16) VH: QVTLKESGPGILQPSQTLSLTCSFSGFSLSTFALGVGWIRQPSGRGLEWLAHIWWDDDKYYNPALKSRLTISKDTSKNHVFLKIANVDTADTATYYCARITTYYYGMDYWGQGTSVTVSS VL: DIVLSQSPATLSVTPGDSVSLFCRASQSIGNHLHWYQQESHASPRLLIKYASQSISGIPSRFSGSGSGTDFTLSINSVETEDFGMYFCQQSYNWPLTFGAGTKLELK | no binding (tested: 3 µg/ml) | 
2 | antibody 3 (antibody, V domains shown, mouse IgG, kappa light chain; also called clone #3; purified antibody 3) VH: QVTLKESGPGILQPSQTLSLTCSFSGFSLTTFAMGIGWVRQPSGKGLEWLAHIWWDGEKYNNPVLKSRLTISKDTSKNQVFLRIANVDTPDTATYYCARISSIYYIIDNWGQGTSVTVSS VL: DIVLTQSPATLSVTPGHSVSLSCRASQSISNNLHWYQKKSHESPRLLIKYVSQSISGIPSRFSGSGSGTDFTLSINSVETEDFGMYFCQQSYNWPLTFGAGTKLELK |  | ≥ 60
3 | antibody 5 (antibody, V domains shown, mouse IgG, kappa light chain; also called clone #5; purified antibody 5) VH: QVTLKESGPGILQPSQTLSLTCSFSGFSLSTFGMGVGWIRQPSGKGLEWLAHIWWDDEKYYNSALKSRLTISKATSKNQAFLKIANVDTADTATYYCARISNYGSNYWYFNVWGTGTTVTVSS VL: QVVLTQSPALMSASPGEKVTMTCSAGSSVSCMYWYQQKPGSSPRVLIYDTSNLASGVPARFTGSGSGTSYSLTISRMEAEDAASYYCQQWNSYPLTFGAGTKLELK | no binding (tested: 3 µg/ml) | ≥ 95
4 | antibody 42 (antibody, V domains shown, mouse IgG, kappa light chain; also called clone #42; purified antibody 42) VH: QVTLKESGPGILQPSQTLSLTCSLSGFSLSTFGRGVGWIRQPSGKGLEWLAHIWWDDEKYYNPALKSRLTISKDTSKNQVFLRIANVDTADTATYYCARIQNYGSNYWYFDVWGTGTTVTVSS VL: LIVLTQSPAIMSASPGEKVTMTCGATSRISYMFWYQQKPGSSPRVLIYDTSNLASGVPVRFSGSGSGTSYSLTISRVEAEDVATYYCQQWNSYPLTFGAGTKLELK |  | ≥ 95
5 | antibody 44 (antibody, V domains shown, mouse IgG, kappa light chain; also called clone #44; purified antibody 44) VH: QVTLKESGPGILQPSQTLSLTCSFSGFSLSTFGMGVGWIRQPSEKGLEWLAHIWWDDDKYYNPALKSRLTISKDTSKNQIFLKITNVDTAETATYYCSRIGNYGSNYWYFDVWGTGTTVTVSS VL: QIVLTQSPAVMSASPGEKVTMTCTASSSVYYMYWYQQTPGSSPRLLIYDTSNLASGVPVRFSGSGSGTSYSLTISRMEAEDAATYYCQQWNTYPLTFGAGTKLELK |  | ≥ 60
6 | antibody 43 (antibody, V domains shown, mouse IgG, kappa light chain; also called clone #43; purified antibody 43) VH: QVALKESGPGILQPSQTLSLTCSFSGFSLSTFGMGVGWIRQSSGKGLEWLANIWWDDDKYYNPALKSRLTISKDASKNQAFLKIANVDTADTATYYCARIGNYGSNYWYFDVWGTGTTVTVSS VL: QIVLTQSPAIMSASPGERVTMTCSANSRISYMYWYQQKPGSSPRLLIYDTSNLASGVPVRFSGSGSGTSYSLTISRMEAEDAATYNCQQWSSYPLTFGAGTKLELK |  | ≥ 95
7 | antibody 22 (antibody, V domains shown, mouse IgG, kappa light chain; also called clone #22; purified antibody 22) VH: QVTLKESGPGILQPSQTLSLTCSFSGFSLSTFGMGVGWIRQPSGKGLEWLAHIWWDDEKYYNSALKSRLTISKATSKNQVFLKIANVDTADTATYYCARISNYGSNYWYFNVWGTGTTVTVSS VL: QVVLTQSPALMSASPGEKVTMTCSAGSSVSYMYWYQQKPGSSPRVLIYDTSNLASGVPARFTGSGSGTSYSLTISRMEAEDAATYYCQQWNSYPLTFGAGTKLELK | no binding (tested: 3 µg/ml) | ≥ 60
8 | antibody 34 (antibody, V domains shown, mouse IgG, kappa light chain; also called clone #34; purified antibody 34) VH: QVTLKESGPGILQPSQTLSLTCSFSGFSLSTFSLGVGWIRQSSGKGLEWLAHIWWDDEKYYNPALKSRLTISKDTSKNQVFLKIANVDAADTATYYCARAYYSKSYYALDYWGQGTSVTVSS VL: DIQMTQSPSSLSASLGERVSLTCRASQEISGYLSWLQQKPDGTIKRLIYAASTLDSGVPKRFSGSRSGSDYSLAISSLESEDFADYYCLQYANFPFTFGSGTKLEIK |  | ≥ 95
9 | antibody 50 (antibody, V domains shown, mouse IgG, kappa light chain; also called clone #50; purified antibody 50) VH: QVQLQQSGAELVRPGASVKVSCKASGYAFSNYLIEWVKQRPGQGLEWIGVINPGSGFTKYNEKFKGKATLTADKSSSTAYMQLSSLTSEDSAVYFCARGLYRAMDYWGQGTSVTVSS VL: DIQMTQSPASQSASLGESVTITCLASQTIGTWLAWYQQKPGKSPQLLIYAAASLADGVPSRFSGGGSGTKFSFKISSLQAEDFVNYYCQQIYSTPYTFGGGTKLEIK |  | ≥ 30
